Results reported in patent US12043671B2, “Antibodies targeting an amphiregulin-derived cell surface neo-epitope” (Gundersen Lutheran Medical Foundation, Inc., priority 2021, dated 2024).

Assays:
[1] = biological target: T1, cleaved-AREG peptide (Homo sapiens, UniProt P15514); test: ELISA binding of 1A3 and 1A3-VC-PAB-MMAE to cleaved-AREG peptide; conditions: 0.001-1 μg/mL
T1 construct: host or cells: synthetic peptide
Description: Maxisorp flat bottom 96-well plates (Thermo Fisher Scientific) were coated with 5 μg/mL cleaved-AREG peptide at 4° C. overnight. After washing thrice with PBST (PBS with 0.05% Tween20) and blocking for 2 h at RT with 5% non-fat dry milk in PBST, various concentrations of 1A3 and 1A3-VC-PAB-MMAE (0.001, 0.01, 0.1, 1 μg/mL) were added to the wells and incubated for 2 h at RT. The wells were washed four times with PBST and were incubated at RT with Goat anti-rabbit IgG (H+L) Cross-adsorbed-HRP conjugate secondary Ab (ThermoFisher G-21234) for 1 h. One-Step™ Turbo™ B-ELISA Substrate Solution (Thermo Fisher Scientific) was added to the wells for color development, incubated for 15 min and the reaction was stopped by adding 2 M H2SO4.

[2] = system: MCF7 cells; test: Internalization and intracellular localization of 1A3-pHrodo, live-cell imaging; assay type: cell-based, human; conditions: time course to 2.5 h
Description: In order to study internalization, 1A3 was conjugated with pHrodo iFL Red dye using pHrodo iFL Red Microscale Protein Labeling Kit (P36014, Thermo Fisher Scientific). MCF7 cells were seeded in 12 mm Nunc Glass Bottom Dish, at a density of 1 ×10^5 cells/dish. After allowing the cells to attach overnight, the cells were incubated for 60 min with […] Hoechst dye for nuclei staining and LysoTracker® Green DND-26 (Thermo Fisher Scientific) for lysosomal labeling. The cells were then incubated with 1A3-pHrodo (2 μg/mL) for 20 min at 37° C. After washing the wells with PBS, the cells were supplemented with 1× live-cell imaging solution (Molecular probes, Thermo Fisher Scientific). Fluorescence images were acquired at 30 min intervals for 2.5 h with the Olympus 1×71 inverted fluorescence microscope (Olympus, Shinjuku, Tokyo, Japan). TAPI-2 (20 μM)—pre-treatment was performed overnight, with DMSO serving as a control.

[3] = system: MCF7-F xenografts; test: Orthotopic MCF7-F endocrine-resistant xenograft in NSG mice; assay type: in vivo, mouse
Description: In Vivo Antitumor Activity Studies: The animal experiments were approved by the Institutional Animal Care and Use Committee of University of Wisconsin La Crosse (La Crosse, Wisconsin, USA). Four-week-old female NOD.Cg-Prkdc^scid II2rg^tm1Wjl/SzJ mice (NSG; The Jackson Laboratory) were acclimated for 1 week before the experiments. For MCF7 breast cancer xenograft model, the mice were implanted subcutaneously with 0.72-mg 17β-estradiol 90-day release tablets (Innovative Research of America) 3 days prior to cell injection. […] Firefly luciferase expressing MCF7 and MCF7-F cells (2×10^6 cells in a 1:1 mixture of serum-free DMEM and Matrigel) were injected orthotopically into the fourth inguinal mammary fat pad of each mouse. Once the tumors were well established, each cell line cohort was divided into three groups (n=5). Mean tumor volume at the start of treatment was 111 mm^3 for the MCF7 cohorts and 119 mm^3 for the MCF7-F cohorts. The mice were treated by intraperitoneal injection every 4 days for a total of six doses with unconjugated or MMAE conjugated anti-cleaved-AREG 1A3 antibody (5 mg/kg), or vehicle control (PBS). Tumor volumes were calculated from caliper data by using the formula: Volume (mm^3)=(Length×Width^2)/2. Mice were imaged weekly with the in vivo FX PRO imaging system (Carestream Molecular Imaging, Woodbridge, CA, USA) after injecting luciferin (150 mg/kg body weight). Tumor volume and body weight were monitored once a week. Statistical Analysis:
To test in vivo efficacy of 1A3-MMAE, human breast cancer cell lines expressing luciferase were injected orthotopically into NSG mice (one tumor in each inguinal mammary gland). Once the average tumor size reached approximately 100-125 mm^3, mice were randomized to one of three treatment groups: PBS, 1A3 (5 mg/kg) or 1A3-MMAE (5 mg/kg). Mice received intraperitoneal injections every 4 days for six total injections and were monitored for tumor progression or regression. Similar experiments were performed with MCF7 (FIGS. 5A, 5B, and 5C, left panels) and MCF7-F (FIGS. 5A, 5B, and 5C, right panels) xenografts.

[4] = biological target: T2, cleaved AREG (Homo sapiens, UniProt P15514); test: Immunohistochemistry on breast tumor tissue micro-array; conditions: for proportion of tumors exhibiting medium/high intensity staining: 10 μg/mL
T2 construct: tissue US Biomax Inc; host or cells: breast disease spectrum tissue micro-array (formalin-fixed, paraffin-embedded)
T2 sequence (P15514 188-252): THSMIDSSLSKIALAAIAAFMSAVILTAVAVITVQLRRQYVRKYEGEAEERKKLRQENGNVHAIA
Description: A breast disease spectrum tissue micro-array was purchased from US Biomax Inc. (Derwood, MD, USA). The slides were deparaffinized in xylene and rehydrated by serial incubations in graded ethanol and then in water in a Histo-Tek® SL Slide Stainer (Sakura Finetek USA, Inc., Torrance, CA, USA). Antigen retrieval was performed in a steamer by boiling slides in a container of citrate buffer (pH 6.0) for 20 min, which was then removed for 15 min of cooling on the benchtop. Slides were washed in 1×Wash buffer (Dako Agilent, Santa Clara, CA, USA) and endogenous peroxidase was quenched by incubating with Dako Dual Endogenous Enzyme Block (S2003) for 10 min. Slides were washed in 1× Wash buffer, blocked (5% rabbit/10% goat serum in PBS), and immunostained with goat anti-AREG antibody (15 μg/mL; AF262, R&D Systems) or rabbit anti-cleaved AREG 1A3 antibody (10 μg/mL) overnight at 4° C. Slides were washed four times in 1× Wash buffer, followed by the incubation for 45 min at room temperature in 1:100 dilution of rabbit anti-goat immunoglobulins/HRP (Dako, P0160 or ready-to-use goat anti-rabbit HRP labeled polymer (Dako, K4003). The slides were washed twice in 1× Wash buffer and the color was developed with 3,3-diaminobenzidine tetrahydrochloride substrate chromogen system (K3468, DAKO, Santa Clara, CA, USA). Sections were washed with water and counterstained with hematoxylin, rinsed with water, dehydrated by serial ethanol washes to 100%, cleared and mounted in Permount (Thermo Fisher Scientific). The staining intensity was assessed semi-quantitatively using a four-point scale (negligible=0, low=1, medium=2, high=3) by two investigators working independently on blinded samples. Discordant scores were resolved by joint review.

B1: 1A3: Rabbit monoclonal IgG specific to cleaved AREG; VH SEQ ID NO: 3, VL SEQ ID NO: 4 (antibody, V domains shown)
VH: QSVKESEGRLVTPGTPLRLTCTVAGYSLSRYHMCWVRQAPGKGLEWIGMIGGSGRTDYASWAKGRFTISKTSTTVDLKITSPTTEDTATYFCSTVYTDSDGDFWGPGTLVTVSS
VL: AELDMTQTPSSKSVPVGGTVTINCQASESVYSNDRLAWFQQKPGQPPKLLIYYASTLASGVPSRFKGSGSGTQFTLTISDLECADAATYYCQSCYDMSSYGVAFGGGTELEIL
modifications: 1A3 antibody, Heavy chain; 1A3 antibody, Light chain
- binding to cleaved AREG peptide, unconjugated vs MMAE-conjugated [1]: no substantial difference in binding
- trafficking after internalization (colocalization of pHrodo and Lysotracker signals) [2]: trafficked to the lysosome after internalization
- longitudinal luciferase imaging of xenografts ([3]; 5 mg/kg): exhibited tumor growth
- tumor volume response by caliper measurements ([3]; 5 mg/kg i.p. every 4 days, six doses): continued, sometimes rapid increases in tumor volume
- cases with medium/high immunoreactivity ([4]; 138 breast cancer specimens): 70%
- proportion of tumors exhibiting medium/high intensity staining ([4]; ER-negative tumors (n=50)): 70%
- proportion of tumors exhibiting medium/high intensity staining ([4]; ER-positive tumors (n=88)): 69.3%
